Values of other authors as cited in article PMC6538672.
pKd: −log10 of the molar value.

Molecular target: RMI1:RMI2 (Homo sapiens) (UniProt Q9H9A7)
Sequence of UniProt Q9H9A7 (Q9H9A7 whole entry, chain 1 of 2): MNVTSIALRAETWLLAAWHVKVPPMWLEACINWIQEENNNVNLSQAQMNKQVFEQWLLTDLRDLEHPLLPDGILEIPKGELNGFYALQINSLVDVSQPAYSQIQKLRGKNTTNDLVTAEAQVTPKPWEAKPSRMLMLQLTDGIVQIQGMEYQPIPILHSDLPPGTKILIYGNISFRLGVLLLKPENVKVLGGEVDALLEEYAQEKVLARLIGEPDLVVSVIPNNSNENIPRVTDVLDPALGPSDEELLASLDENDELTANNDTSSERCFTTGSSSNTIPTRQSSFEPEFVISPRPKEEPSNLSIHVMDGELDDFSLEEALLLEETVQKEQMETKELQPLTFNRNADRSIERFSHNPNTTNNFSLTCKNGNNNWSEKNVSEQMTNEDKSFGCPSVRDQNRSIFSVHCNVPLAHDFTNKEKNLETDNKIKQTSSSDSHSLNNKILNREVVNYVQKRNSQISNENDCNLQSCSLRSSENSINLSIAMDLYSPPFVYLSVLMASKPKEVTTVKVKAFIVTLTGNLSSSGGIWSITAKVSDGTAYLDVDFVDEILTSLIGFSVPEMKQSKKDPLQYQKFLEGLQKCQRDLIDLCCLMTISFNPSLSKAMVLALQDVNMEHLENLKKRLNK
Sequence of UniProt Q9H9A7 (Q96E14 2-147, chain 2 of 2, further chain): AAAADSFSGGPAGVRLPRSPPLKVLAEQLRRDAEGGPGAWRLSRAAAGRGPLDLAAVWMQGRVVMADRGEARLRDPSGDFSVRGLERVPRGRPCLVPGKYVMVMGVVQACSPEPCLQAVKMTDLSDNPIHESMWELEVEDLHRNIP

Substance: FANCM MM2 (from UniProt Q8IYD8)
- pKd: 8.30
